Laboratory results: US20140193430A1
One block for each substance: values may come before it.

How the values were obtained:
[1] = target: recombinant KIR2DL1 protein (entire extracellular domain, produced in E. coli, refolded) (human) (UniProt P43626); test: BIAcore, second Ab on KIR2DL1 chip with first Ab (competitor) 1-6F1 bound
[2] = target: recombinant KIR2DL1 protein (entire extracellular domain, produced in E. coli, refolded) (human) (UniProt P43626); test: BIAcore, direct binding of second Ab to KIR2DL1 chip (field of first Ab EB6)
[3] = target: recombinant KIR2DL1 protein (entire extracellular domain, produced in E. coli, refolded) (human) (UniProt P43626); test: BIAcore competition on KIR2DL1 chip; first Ab EB6, second Ab (competitor) Pan2D
[4] = target: recombinant KIR2DL1 protein (entire extracellular domain, produced in E. coli, refolded) (human) (UniProt P43626); test: BIAcore competition on KIR2DL1 chip; first Ab EB6, second Ab (competitor) DF200
[5] = target: recombinant KIR2DL1 protein (entire extracellular domain, produced in E. coli, refolded) (human) (UniProt P43626); test: BIAcore competition on KIR2DL1 chip; first Ab EB6, second Ab (competitor) 1-6F1
[6] = target: recombinant KIR2DL1 protein (entire extracellular domain, produced in E. coli, refolded) (human) (UniProt P43626); test: BIAcore, direct binding of second Ab to KIR2DL1 chip (field of first Ab 1-6F1)
[7] = target: recombinant KIR2DL1 protein (entire extracellular domain, produced in E. coli, refolded) (human) (UniProt P43626); test: BIAcore, second Ab on KIR2DL1 chip with first Ab (competitor) EB6 bound
[8] = target: recombinant KIR2DL1 protein (entire extracellular domain, produced in E. coli, refolded) (human) (UniProt P43626); test: BIAcore competition on KIR2DL1 chip; first Ab EB6, second Ab (competitor) EB6
[9] = target: recombinant KIR2DL1 protein (entire extracellular domain, produced in E. coli, refolded) (human) (UniProt P43626); test: BIAcore, direct binding of second Ab to KIR2DL1 chip (field of first Ab 1-7F9)
[10] = target: recombinant KIR2DL1 protein (entire extracellular domain, produced in E. coli, refolded) (human) (UniProt P43626); test: BIAcore, second Ab on KIR2DL1 chip with first Ab (competitor) 1-7F9 bound
[11] = target: recombinant KIR2DL1 protein (entire extracellular domain, produced in E. coli, refolded) (human) (UniProt P43626); test: BIAcore competition on KIR2DL1 chip; first Ab EB6, second Ab (competitor) 1-4F1
[12] = target: recombinant KIR2DL1 protein (entire extracellular domain, produced in E. coli, refolded) (human) (UniProt P43626); test: BIAcore competition on KIR2DL1 chip; first Ab EB6, second Ab (competitor) 1-7F9
[13] = target: immobilized KIR2DS1 (UniProt Q14954); test: BIAcore competition on KIR2DS1 chip; first Ab Pan2D, second Ab (competitor) 1-4F1
[14] = target: recombinant KIR2DL1 protein (entire extracellular domain, produced in E. coli, refolded) (human) (UniProt P43626); test: BIAcore competition on KIR2DL1 chip; first Ab Pan2D, second Ab (competitor) 1-4F1
[15] = target: KIR2DL1(R131W)-hFc (human) (UniProt P43626); test: ELISA, KIR2DL1(R131W)-hFc captured via goat anti-human antibodies, mAb titrated, peroxidase anti-mouse, A450 [panel pan2D]
[16] = target: recombinant KIR2DL3 protein (entire extracellular domain, produced in E. coli, refolded) (human) (UniProt P43628); test: BIAcore, direct binding of second Ab to KIR2DL3 chip (field of first Ab 1-7F9)
[17] = target: recombinant KIR2DL3 protein (entire extracellular domain, produced in E. coli, refolded) (human) (UniProt P43628); test: BIAcore, direct binding of second Ab to KIR2DL3 chip (field of first Ab 1-6F1)
[18] = target: immobilized KIR2DS1 (UniProt Q14954); test: BIAcore, second Ab on KIR2DS1 chip with first Ab (competitor) 1-7F9 bound
[19] = target: recombinant KIR2DL3 protein (entire extracellular domain, produced in E. coli, refolded) (human) (UniProt P43628); test: BIAcore competition on KIR2DL3 chip; first Ab Pan2D, second Ab (competitor) DF200
[20] = target: immobilized KIR2DS1 (UniProt Q14954); test: BIAcore, direct binding of second Ab to KIR2DS1 chip (field of first Ab 1-7F9)
[21] = target: recombinant KIR2DL1 protein (entire extracellular domain, produced in E. coli, refolded) (human) (UniProt P43626); test: BIAcore competition on KIR2DL1 chip; first Ab Pan2D, second Ab (competitor) 1-6F5
[22] = target: recombinant KIR2DL1 protein (entire extracellular domain, produced in E. coli, refolded) (human) (UniProt P43626); test: BIAcore competition on KIR2DL1 chip; first Ab Pan2D, second Ab (competitor) EB6
[23] = target: recombinant KIR2DL1 protein (entire extracellular domain, produced in E. coli, refolded) (human) (UniProt P43626); test: BIAcore competition on KIR2DL1 chip; first Ab Pan2D, second Ab (competitor) DF200
[24] = target: recombinant KIR2DL3 protein (entire extracellular domain, produced in E. coli, refolded) (human) (UniProt P43628); test: BIAcore competition on KIR2DL3 chip; first Ab Pan2D, second Ab (competitor) 1-7F9
[25] = target: recombinant KIR2DL3 protein (entire extracellular domain, produced in E. coli, refolded) (human) (UniProt P43628); test: BIAcore competition on KIR2DL3 chip; first Ab Pan2D, second Ab (competitor) 1-6F5
[26] = target: recombinant KIR2DL1 protein (entire extracellular domain, produced in E. coli, refolded) (human) (UniProt P43626); test: BIAcore, second Ab on KIR2DL1 chip with first Ab (competitor) 1-6F5 bound
[27] = target: immobilized KIR2DS1 (UniProt Q14954); test: BIAcore competition on KIR2DS1 chip; first Ab Pan2D, second Ab (competitor) DF200
[28] = target: recombinant KIR2DL1 protein (entire extracellular domain, produced in E. coli, refolded) (human) (UniProt P43626); test: BIAcore, direct binding of second Ab to KIR2DL1 chip (field of first Ab 1-6F5)
[29] = target: recombinant KIR2DL3 protein (entire extracellular domain, produced in E. coli, refolded) (human) (UniProt P43628); test: BIAcore competition on KIR2DL3 chip; first Ab Pan2D, second Ab (competitor) 1-4F1
[30] = target: recombinant KIR2DL3 protein (entire extracellular domain, produced in E. coli, refolded) (human) (UniProt P43628); test: BIAcore, second Ab on KIR2DL3 chip with first Ab (competitor) 1-6F1 bound
[31] = target: recombinant KIR2DL1 protein (entire extracellular domain, produced in E. coli, refolded) (human) (UniProt P43626); test: BIAcore competition on KIR2DL1 chip; first Ab Pan2D, second Ab (competitor) 1-7F9
[32] = target: recombinant KIR2DL3 protein (entire extracellular domain, produced in E. coli, refolded) (human) (UniProt P43628); test: BIAcore, second Ab on KIR2DL3 chip with first Ab (competitor) 1-6F5 bound
[33] = target: recombinant KIR2DL3 protein (entire extracellular domain, produced in E. coli, refolded) (human) (UniProt P43628); test: BIAcore, direct binding of second Ab to KIR2DL3 chip (field of first Ab 1-6F5)
[34] = target: recombinant KIR2DL3 protein (entire extracellular domain, produced in E. coli, refolded) (human) (UniProt P43628); test: BIAcore, second Ab on KIR2DL3 chip with first Ab (competitor) 1-7F9 bound
[35] = target: recombinant KIR2DL3 protein (entire extracellular domain, produced in E. coli, refolded) (human) (UniProt P43628); test: BIAcore competition on KIR2DL3 chip; first Ab Pan2D, second Ab (competitor) gl183
[36] = target: recombinant KIR2DL1 protein (entire extracellular domain, produced in E. coli, refolded) (human) (UniProt P43626); test: BIAcore competition on KIR2DL1 chip; first Ab Pan2D, second Ab (competitor) 1-6F1
[37] = target: recombinant KIR2DL3 protein (entire extracellular domain, produced in E. coli, refolded) (human) (UniProt P43628); test: BIAcore competition on KIR2DL3 chip; first Ab Pan2D, second Ab (competitor) 1-6F1
[38] = target: recombinant KIR2DL3 protein (entire extracellular domain, produced in E. coli, refolded) (human) (UniProt P43628); test: BIAcore, second Ab on KIR2DL3 chip with first Ab (competitor) 1-4F1 bound
[39] = target: recombinant KIR2DL3 protein (entire extracellular domain, produced in E. coli, refolded) (human) (UniProt P43628); test: BIAcore, direct binding of second Ab to KIR2DL3 chip (field of first Ab 1-4F1)
[40] = target: immobilized KIR2DS1 (UniProt Q14954); test: BIAcore competition on KIR2DS1 chip; first Ab Pan2D, second Ab (competitor) 1-7F9

RU, binding with first Ab present (RU2) [1]: 320 RU | RU, direct binding (RU1) [2]: 460 RU | % inhibition of second Ab binding by first Ab [3]: 40% | % inhibition of second Ab binding by first Ab [4]: 60% | % inhibition of second Ab binding by first Ab [5]: 23% | RU, direct binding (RU1) [6]: 260 RU | RU, binding with first Ab present (RU2) [7]: 200 RU | % inhibition of second Ab binding by first Ab [8]: 57% | RU, direct binding (RU1) [9]: 460 RU | RU, binding with first Ab present (RU2) [10]: 180 RU | % inhibition of second Ab binding by first Ab [11]: 48% | % inhibition of second Ab binding by first Ab [12]: 65%
Substance: EB6 (IgG1 anti KIR2DL1) (antibody)

% inhibition of second Ab binding by first Ab [13]: 100% | RU, binding with first Ab present (RU2) [1]: 440 RU | % inhibition of second Ab binding by first Ab [14]: 95% | EC50 (read off the curve) [15]: 20 nM | RU, direct binding (RU1) [16]: 870 RU | RU, direct binding (RU1) [17]: 990 RU | RU, binding with first Ab present (RU2) [18]: 1200 RU | % inhibition of second Ab binding by first Ab [19]: 95% | RU, direct binding (RU1) [20]: 1350 RU | % inhibition of second Ab binding by first Ab [21]: 13% | % inhibition of second Ab binding by first Ab [22]: 90% | % inhibition of second Ab binding by first Ab [23]: 90% | RU, direct binding (RU1) [6]: 475 RU | % inhibition of second Ab binding by first Ab [24]: 15% | % inhibition of second Ab binding by first Ab [25]: 18% | RU, binding with first Ab present (RU2) [26]: 440 RU | % inhibition of second Ab binding by first Ab [27]: 100% | RU, direct binding (RU1) [28]: 475 RU | RU, direct binding (RU1) [9]: 545 RU | RU, binding with first Ab present (RU2) [10]: 534 RU | % inhibition of second Ab binding by first Ab [29]: 68% | RU, binding with first Ab present (RU2) [30]: 1090 RU | % inhibition of second Ab binding by first Ab [31]: 2% | RU, binding with first Ab present (RU2) [32]: 950 RU | RU, direct binding (RU1) [33]: 990 RU | RU, binding with first Ab present (RU2) [34]: 830 RU | % inhibition of second Ab binding by first Ab [35]: 85% | % inhibition of second Ab binding by first Ab [36]: 12% | % inhibition of second Ab binding by first Ab [37]: 8% | RU, binding with first Ab present (RU2) [38]: 890 RU | RU, direct binding (RU1) [39]: 2400 RU | % inhibition of second Ab binding by first Ab [40]: 45%
Substance: monoclonal antibody NKVSF1
